The results in this text go back to paper PMC4613507.

The assay concerns the target GST-N–ezrin (GST-tagged N-terminal ezrin 1–309 aa) (UniProt P15311). Briefly: pull-down.
Chain of UniProt P15311 (P15311 1-309): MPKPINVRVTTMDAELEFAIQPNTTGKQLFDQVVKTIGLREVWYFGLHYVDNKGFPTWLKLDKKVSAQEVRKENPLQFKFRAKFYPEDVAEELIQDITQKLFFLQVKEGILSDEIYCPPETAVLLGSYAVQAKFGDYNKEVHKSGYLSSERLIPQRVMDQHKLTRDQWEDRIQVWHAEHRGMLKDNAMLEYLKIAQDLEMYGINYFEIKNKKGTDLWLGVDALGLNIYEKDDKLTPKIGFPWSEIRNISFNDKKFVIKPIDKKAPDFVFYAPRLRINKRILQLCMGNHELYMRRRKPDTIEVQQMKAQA

In the case of “His6–thioredoxin fused NHERF2–C109 (domain or fragment)”, the fold higher ezrin-binding affinity than NHERF1–C127 was 4 to 8 fold.
